The record followed here is paper PMC3282699, “S. pombe Kinesins-8 Promote Both Nucleation and Catastrophe of Microtubules” (PLoS ONE, 2012).

Data set [1] deals with Klp6_(440)His (S. pombe) (UniProt O59751).
Data set [2] deals with T1, Klp5FLGST (S. pombe, UniProt O14343 1-883).
T1 construct: Klp5, kinesin-8 of S. pombe, amino acids 1-883; it was only obtained co-expressed with Klp6FLHis; The cloning of this plasmid is not described in the methods; also called full-length Klp5; not shown: GST, C-terminal, kept
T1 sequence (looked up): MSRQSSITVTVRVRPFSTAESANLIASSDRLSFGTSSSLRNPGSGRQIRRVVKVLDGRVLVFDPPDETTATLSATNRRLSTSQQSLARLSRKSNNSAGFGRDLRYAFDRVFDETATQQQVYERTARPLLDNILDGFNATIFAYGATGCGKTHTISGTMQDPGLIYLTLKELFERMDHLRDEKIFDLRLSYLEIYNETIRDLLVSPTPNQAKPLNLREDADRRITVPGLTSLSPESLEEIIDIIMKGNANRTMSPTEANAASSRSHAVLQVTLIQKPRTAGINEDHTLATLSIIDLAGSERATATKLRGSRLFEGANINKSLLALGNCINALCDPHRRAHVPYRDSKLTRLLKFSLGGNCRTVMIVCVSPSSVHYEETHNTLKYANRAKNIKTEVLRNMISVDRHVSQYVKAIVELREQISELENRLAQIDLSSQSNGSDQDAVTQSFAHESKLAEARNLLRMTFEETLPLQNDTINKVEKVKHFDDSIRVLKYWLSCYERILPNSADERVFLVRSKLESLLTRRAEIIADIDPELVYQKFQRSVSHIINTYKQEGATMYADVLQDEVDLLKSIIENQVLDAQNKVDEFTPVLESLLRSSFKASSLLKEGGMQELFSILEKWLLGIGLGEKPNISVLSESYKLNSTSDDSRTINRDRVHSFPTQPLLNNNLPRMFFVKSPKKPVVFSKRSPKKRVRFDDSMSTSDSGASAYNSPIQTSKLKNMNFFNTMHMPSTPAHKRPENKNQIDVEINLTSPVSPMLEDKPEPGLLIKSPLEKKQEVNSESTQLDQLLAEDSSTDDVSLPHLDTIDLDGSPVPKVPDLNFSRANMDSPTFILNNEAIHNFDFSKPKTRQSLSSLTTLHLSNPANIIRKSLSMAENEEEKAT
Nature of the data set: pull-down; co-expressed in E. coli; sequential affinity purification from the bacterial lysate by the His tag (Ni column) and then the GST tag (eluted with 10 mM glutathione); SDS-PAGE, densitometry. Conditions: partners not purified.

Data set [3] deals with Taxol stabilised pig brain microtubules (pig) (UniProt P02550).
For data set [4], the target named is S. pombe GMPCPP microtubules (S. pombe), P04688.
Data set [5] deals with S. pombe tubulin heterodimer (S. pombe), P04688.
Data set [6] concerns the target S. pombe GMPCPP microtubules (S. pombe) (UniProt P04688).
Data set [7] concerns the target pig brain tubulin heterodimer (pig) (UniProt P02550).
In data set [8] the target is S. pombe tubulin heterodimer (S. pombe) (UniProt P04688).
Data set [9] concerns the molecule itself. Nature of the data set: SEC; Superose-12 HR 10/300 GL at 4°C, 0.5 ml/min, 100 mM PIPES, 200 mM NaCl, 1 mM MgCl2, 2 mM EDTA, pH 6.9; elution compared with Ovalbumin (43 kDa) and Bovine Serum Albumin (67 kDa).
The target of data set [10] is S. pombe single isoform (α1β) tubulin heterodimer (S. pombe) (UniProt P04688). Briefly: SEC; 15 µM tubulin with 10.7 µM dimeric Klp6_(440)His incubated at 4°C for 30 min in 80 mM PIPES, 2.5 mM MgCl2, 1 mM EDTA, 1.5 mM GMPCPP, 1 mM DTT pH 6.9; Superose-12 at 4°C; fractions on SDS-PAGE, fluorescent stain quantified. A general note: SEC sorts molecules by how far they enter the pores of the column.

By stoichiometry N is commonly meant the number of molecules, sites or subunits per partner or assembly.

S. pombe tubulin heterodimer (S. pombe), P04688, sequence (P04688 whole entry, chain 1 of 2): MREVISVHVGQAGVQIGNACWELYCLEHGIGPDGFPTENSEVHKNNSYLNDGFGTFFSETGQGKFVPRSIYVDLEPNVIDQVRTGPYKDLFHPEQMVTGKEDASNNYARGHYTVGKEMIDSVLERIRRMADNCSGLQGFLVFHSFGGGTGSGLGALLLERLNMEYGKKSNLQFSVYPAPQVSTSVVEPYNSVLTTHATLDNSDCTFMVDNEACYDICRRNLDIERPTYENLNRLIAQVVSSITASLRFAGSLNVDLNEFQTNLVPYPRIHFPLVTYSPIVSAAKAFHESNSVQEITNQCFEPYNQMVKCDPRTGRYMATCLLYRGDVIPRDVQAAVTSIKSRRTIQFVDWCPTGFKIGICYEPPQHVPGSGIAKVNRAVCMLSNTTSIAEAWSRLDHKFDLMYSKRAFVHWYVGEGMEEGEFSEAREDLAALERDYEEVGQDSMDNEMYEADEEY
S. pombe tubulin heterodimer (S. pombe), P04688, sequence (P05219 whole entry, chain 2 of 2, further chain): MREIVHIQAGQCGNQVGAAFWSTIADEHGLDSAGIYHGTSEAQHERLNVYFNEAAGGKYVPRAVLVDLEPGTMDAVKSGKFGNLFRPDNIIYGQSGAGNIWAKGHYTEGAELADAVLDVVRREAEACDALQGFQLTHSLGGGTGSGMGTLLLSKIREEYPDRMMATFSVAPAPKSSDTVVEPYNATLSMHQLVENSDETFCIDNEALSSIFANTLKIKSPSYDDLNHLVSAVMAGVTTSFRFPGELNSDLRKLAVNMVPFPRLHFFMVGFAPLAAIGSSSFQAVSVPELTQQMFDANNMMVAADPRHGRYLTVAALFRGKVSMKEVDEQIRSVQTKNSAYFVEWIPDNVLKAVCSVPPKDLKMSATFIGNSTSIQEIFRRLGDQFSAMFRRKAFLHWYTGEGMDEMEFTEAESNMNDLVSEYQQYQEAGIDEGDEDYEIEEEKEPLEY
pig brain tubulin heterodimer (pig), sequence (P02550 whole entry, chain 1 of 2): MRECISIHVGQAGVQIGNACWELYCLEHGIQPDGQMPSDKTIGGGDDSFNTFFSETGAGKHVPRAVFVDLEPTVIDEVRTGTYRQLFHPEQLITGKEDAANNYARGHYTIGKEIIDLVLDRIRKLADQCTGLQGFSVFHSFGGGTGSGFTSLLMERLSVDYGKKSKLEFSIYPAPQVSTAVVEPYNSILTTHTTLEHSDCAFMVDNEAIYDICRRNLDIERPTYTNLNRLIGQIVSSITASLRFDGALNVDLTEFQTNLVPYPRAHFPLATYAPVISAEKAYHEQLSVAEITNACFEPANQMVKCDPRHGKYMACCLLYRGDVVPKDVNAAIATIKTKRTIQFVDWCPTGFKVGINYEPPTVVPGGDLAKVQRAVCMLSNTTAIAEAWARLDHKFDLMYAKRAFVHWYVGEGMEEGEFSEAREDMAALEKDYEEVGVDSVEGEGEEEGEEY
pig brain tubulin heterodimer (pig), sequence (Q767L7 whole entry, chain 2 of 2, further chain): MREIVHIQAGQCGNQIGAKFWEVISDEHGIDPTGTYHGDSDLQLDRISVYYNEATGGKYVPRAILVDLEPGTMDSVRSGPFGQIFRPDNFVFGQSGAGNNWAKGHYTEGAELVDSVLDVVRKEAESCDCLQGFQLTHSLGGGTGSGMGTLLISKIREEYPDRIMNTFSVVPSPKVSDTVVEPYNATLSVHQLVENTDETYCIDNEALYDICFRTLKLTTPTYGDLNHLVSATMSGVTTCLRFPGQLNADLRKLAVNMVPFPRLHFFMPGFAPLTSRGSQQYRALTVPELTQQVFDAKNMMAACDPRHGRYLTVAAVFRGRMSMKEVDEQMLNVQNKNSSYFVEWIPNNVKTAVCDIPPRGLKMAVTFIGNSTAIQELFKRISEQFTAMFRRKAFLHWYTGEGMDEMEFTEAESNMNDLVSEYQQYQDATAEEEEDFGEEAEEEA
S. pombe tubulin heterodimer (S. pombe), sequence (P04688 whole entry, chain 1 of 2): as the sequence (P04688 whole entry, chain 1 of 2) above
S. pombe tubulin heterodimer (S. pombe), sequence (P05219 whole entry, chain 2 of 2, further chain): as the sequence (P05219 whole entry, chain 2 of 2, further chain) above

In turn, “pig brain tubulin heterodimer (from UniProt P02550 1-451; Q767L7 1-444) (complex)” displayed a Ki of tubulin heterodimers for inhibition of the Klp6 (440)His ATPase stimulated by 73 nM Taxol stabilised pig brain microtubules (blocked pair: m3 with m12) in data set [1] of 0.175 µM.

On to “S. pombe tubulin heterodimer (from UniProt P04688 1-455; P05219 1-448) (complex)”, for which the Ki of tubulin heterodimers for inhibition of the Klp6 (440)His ATPase stimulated by 73 nM Taxol stabilised pig brain microtubules (blocked pair: m3 with m12) in data set [1] is 0.121 µM.

B1: Klp6FLHis (natural protein, S. pombe, UniProt O59751 1-784, looked up)
chain: MKEGSSISVAVRVRPFTEREKGLLAETPKSKEFLGDGSLAVSNTSSNTFCTNGIRKIVRVLDDNVLIFDPPEENPLAKVQKSLLPAGKRFRDVRYAFDRLFGEEASQEDVYKGTTEPLLDSVLQGYNATVFAYGATGCGKTHTISGRPDDPGIIFLTMRALLDRVEGLKRTMNVDISVSYLEIYNEKIRDLLVQDPLSMEKPKSLNICEDAEQNVSVPGLSYFTPTNLEEVMEIIIRGNSNRTMSPTEANAVSSRSHAVLQIYITQTPKSGEKQEESESQNSHKVRSVFSFIDLAGSERASATKNRGKRLVEGANINRSLLALGNCINSLCEPRRRQHVPYRDSKLTRLLKFSLGGNCRTCMIVCISPSSEHYDETHNTLKYGNRAKNIKTKVSRNVVSVDRHVSEYVRTIYELRQKVSILQKRIAEESKQLALNKEVRKISSREIKMLDARSMLKNSFDGSRDLQKSLIEHVRTLRRIEDEITLTKMWISIAKESDAMSGHNIKSVETRLAKLYDQRSLITAKVNPEEICKTFQNSISHIVSSFKGEGADMYADMLQDDVDLLKSIIENQILDAKHESETFSSTSRKLIQNLFLLFPLLPGNAIDVNESLARAFDQLVGIVPSEPTIQVPNLIEKGKAPLLSMFEIPRSPSRFKARSPSKAARVLKKPLKKRVRFSEVPTTSSVPPVEIKNKDSKPKVEKSLDKHNMNNDRSFLVPSRDARNSLTSLSLHSNVAKNKSSHSSKWPTHTLSPIITTALKQPVRRISLVSQPLQKTGGTENTPNA
notes: Klp6, kinesin-8 of S. pombe, amino acids 1-784; also called full-length Klp6; Klp6(aa1-784)/GlyGly/6xHis tag; not shown: His6 (after a GlyGly linker), C-terminal, kept
With B1, the “molar ratio of Klp6FLHis : Klp5FLGST in the sequentially purified fraction” value in data set [2] was 3.2 Klp6FLHis per Klp5FLGST.

B2: Klp5_(436)GST (domain or fragment)
chain: MSRQSSITVTVRVRPFSTAESANLIASSDRLSFGTSSSLRNPGSGRQIRRVVKVLDGRVLVFDPPDETTATLSATNRRLSTSQQSLARLSRKSNNSAGFGRDLRYAFDRVFDETATQQQVYERTARPLLDNILDGFNATIFAYGATGCGKTHTISGTMQDPGLIYLTLKELFERMDHLRDEKIFDLRLSYLEIYNETIRDLLVSPTPNQAKPLNLREDADRRITVPGLTSLSPESLEEIIDIIMKGNANRTMSPTEANAASSRSHAVLQVTLIQKPRTAGINEDHTLATLSIIDLAGSERATATKLRGSRLFEGANINKSLLALGNCINALCDPHRRAHVPYRDSKLTRLLKFSLGGNCRTVMIVCVSPSSVHYEETHNTLKYANRAKNIKTEVLRNMISVDRHVSQYVKAIVELREQISELENRLAQIDLSSQSN
On to B2, for which the Km of the microtubule stimulated ATPase (Taxol stabilised pig brain microtubules), linked assay at 25°C in data set [3] came out at 0.0278 µM.

B3: Klp5_(436)GST, O14343 1-436 (domain or fragment)
chain: MSRQSSITVTVRVRPFSTAESANLIASSDRLSFGTSSSLRNPGSGRQIRRVVKVLDGRVLVFDPPDETTATLSATNRRLSTSQQSLARLSRKSNNSAGFGRDLRYAFDRVFDETATQQQVYERTARPLLDNILDGFNATIFAYGATGCGKTHTISGTMQDPGLIYLTLKELFERMDHLRDEKIFDLRLSYLEIYNETIRDLLVSPTPNQAKPLNLREDADRRITVPGLTSLSPESLEEIIDIIMKGNANRTMSPTEANAASSRSHAVLQVTLIQKPRTAGINEDHTLATLSIIDLAGSERATATKLRGSRLFEGANINKSLLALGNCINALCDPHRRAHVPYRDSKLTRLLKFSLGGNCRTVMIVCVSPSSVHYEETHNTLKYANRAKNIKTEVLRNMISVDRHVSQYVKAIVELREQISELENRLAQIDLSSQSN
Regarding B3, the Km of the microtubule stimulated ATPase (S. pombe GMPCPP microtubules), linked assay at 25°C in data set [4] is 0.045 µM. Besides, the Km of the tubulin heterodimer stimulated ATPase (S. pombe tubulin), linked assay at 25°C in data set [5] stood at 0.108 µM.

B4: Klp5_(436) (domain or fragment)
chain: MSRQSSITVTVRVRPFSTAESANLIASSDRLSFGTSSSLRNPGSGRQIRRVVKVLDGRVLVFDPPDETTATLSATNRRLSTSQQSLARLSRKSNNSAGFGRDLRYAFDRVFDETATQQQVYERTARPLLDNILDGFNATIFAYGATGCGKTHTISGTMQDPGLIYLTLKELFERMDHLRDEKIFDLRLSYLEIYNETIRDLLVSPTPNQAKPLNLREDADRRITVPGLTSLSPESLEEIIDIIMKGNANRTMSPTEANAASSRSHAVLQVTLIQKPRTAGINEDHTLATLSIIDLAGSERATATKLRGSRLFEGANINKSLLALGNCINALCDPHRRAHVPYRDSKLTRLLKFSLGGNCRTVMIVCVSPSSVHYEETHNTLKYANRAKNIKTEVLRNMISVDRHVSQYVKAIVELREQISELENRLAQIDLSSQSN
For B4, in data set [3], the Km of the microtubule stimulated ATPase (Taxol stabilised pig brain microtubules), linked assay at 25°C amounted to 0.045 µM. The Km of the microtubule stimulated ATPase (S. pombe GMPCPP microtubules), linked assay at 25°C in [6] was determined as 0.05 µM. The Km of the tubulin heterodimer stimulated ATPase (pig brain tubulin), linked assay at 25°C in data set [7] stood at 0.427 µM. Also, the Km of the tubulin heterodimer stimulated ATPase (S. pombe tubulin), linked assay at 25°C in data set [8] is 0.336 µM.

B5: Klp6_(440)His, O59751 1-440 (domain or fragment)
chain: MKEGSSISVAVRVRPFTEREKGLLAETPKSKEFLGDGSLAVSNTSSNTFCTNGIRKIVRVLDDNVLIFDPPEENPLAKVQKSLLPAGKRFRDVRYAFDRLFGEEASQEDVYKGTTEPLLDSVLQGYNATVFAYGATGCGKTHTISGRPDDPGIIFLTMRALLDRVEGLKRTMNVDISVSYLEIYNEKIRDLLVQDPLSMEKPKSLNICEDAEQNVSVPGLSYFTPTNLEEVMEIIIRGNSNRTMSPTEANAVSSRSHAVLQIYITQTPKSGEKQEESESQNSHKVRSVFSFIDLAGSERASATKNRGKRLVEGANINRSLLALGNCINSLCEPRRRQHVPYRDSKLTRLLKFSLGGNCRTCMIVCISPSSEHYDETHNTLKYGNRAKNIKTKVSRNVVSVDRHVSEYVRTIYELRQKVSILQKRIAEESKQLALNKEVRK
On to B5, for which the Km of the microtubule stimulated ATPase (S. pombe GMPCPP microtubules), linked assay at 25°C in [4] worked out at 0.056 µM. For the same molecule, in data set [5], the Km of the tubulin heterodimer stimulated ATPase (S. pombe tubulin), linked assay at 25°C is 0.373 µM.

B6: Klp6_(440)His (domain or fragment, S. pombe, UniProt O59751 1-440, looked up)
chain: MKEGSSISVAVRVRPFTEREKGLLAETPKSKEFLGDGSLAVSNTSSNTFCTNGIRKIVRVLDDNVLIFDPPEENPLAKVQKSLLPAGKRFRDVRYAFDRLFGEEASQEDVYKGTTEPLLDSVLQGYNATVFAYGATGCGKTHTISGRPDDPGIIFLTMRALLDRVEGLKRTMNVDISVSYLEIYNEKIRDLLVQDPLSMEKPKSLNICEDAEQNVSVPGLSYFTPTNLEEVMEIIIRGNSNRTMSPTEANAVSSRSHAVLQIYITQTPKSGEKQEESESQNSHKVRSVFSFIDLAGSERASATKNRGKRLVEGANINRSLLALGNCINSLCEPRRRQHVPYRDSKLTRLLKFSLGGNCRTCMIVCISPSSEHYDETHNTLKYGNRAKNIKTKVSRNVVSVDRHVSEYVRTIYELRQKVSILQKRIAEESKQLALNKEVRK
notes: Klp6 of S. pombe, amino acids 1-440: motor domain and complete putative coiled-coil domain; Homodimer by Superose 12 gel filtration; also called Klp6(aa1-440)/GlyGly/6xHis tag; Klp440His; source: E. coli Rosetta 2 (DE3), purified (HisTrap); not shown: His6 (after a GlyGly linker), C-terminal, kept
As to B6, the Km of the microtubule stimulated ATPase (Taxol stabilised pig brain microtubules), linked assay at 25°C in data set [3] was found to be 0.085 µM. Also, in data set [9], the “stoichiometry N” value is 2. The molecule further displayed a stoichiometry N (tubulin heterodimer per kinesin head) in data set [10] of 1.
